According to the RNAGym collection of RNA variant scans (doi:10.7554/elife.80360):

B1: CPEB3 Ribozyme (parent)
chain: GGGGGCCACAGCAGAAGCGUUCACGUCGCGGCCCCUGUCAGAUUCUGGUGAAUCUGCGAAUUCUGCUGU

Variants of: B1
Test: self-cleavage, relative activity (ratio to wild type); higher = more cleavage; co-transcriptional

Variant | self-cleavage
G3C A15C | 0.0371
G3C A15G | 0.113
G3C A16C | 0.0367
G3C A16G | 0.162
G3C A16U | 0.0415
G3C A23C | 0.0635
G3C A23G | 0.0477
G3C A40C | 0.0512
G3C A40G | 0
G3C A40U | 0.016
G3C A42C | 0.0214
G3C A42U | 0.0888
G3C A51C | 0.0422
G3C A51G | 0.0762
G3C A52C | 0.0723
G3C A52G | 0.0775
G3C A52U | 0.075
G3C A59C | 0.0244
G3C A59G | 0.0736
G3C A60C | 0.0624
G3C A60G | 0.0121
G3C C6G | 0.0449
G3C C6U | 0.0391
G3C C7A | 0.026

Variant | self-cleavage
G3C C7G | 0.0644
G3C C7U | 0.102
G3C C9A | 0.511
G3C C9G | 0.166
G3C C12A | 0.0611
G3C C12U | 0.0982
G3C C18A | 0.058
G3C C18G | 0.0441
G3C C18U | 0.0442
G3C C22A | 0.0184
G3C C22G | 0.0359
G3C C22U | 0.0738
G3C C24G | 0.0519
G3C C24U | 0.0425
G3C C27G | 0.06
G3C C27U | 0.0443
G3C C29G | 0.0545
G3C C32A | 0.0311
G3C C33A | 0.0485
G3C C33U | 0.0583
G3C C34G | 0.783
G3C C35U | 0.0352
G3C C39G | 0.0769
G3C C39U | 0.0426

Variant | self-cleavage
G3C C45A | 0.0668
G3C C45U | 0.121
G3C C54G | 0.0518
G3C C57A | 0.0768
G3C C57G | 0.0873
G3C C57U | 0.015
G3C C63A | 0.0751
G3C C66A | 0.0406
G3C C66G | 0.0391
G3C G4A | 0.0691
G3C G4C | 0.137
G3C G4U | 0.0461
G3C G5A | 0.0417
G3C G5U | 0.00743
G3C G11A | 0.0327
G3C G11C | 0.0692
G3C G11U | 0.11
G3C G14A | 0.0364
G3C G14C | 0.0467
G3C G14U | 0.0909
G3C G17A | 0.0395
G3C G17C | 0.0303
G3C G17U | 0.0348
G3C G19A | 0.0368

Variant | self-cleavage
G3C G19C | 0.0344
G3C G25A | 0.0214
G3C G25C | 0.0602
G3C G25U | 0.047
G3C G28A | 0.0239
G3C G28C | 0.0181
G3C G30A | 0.0737
G3C G30C | 0.0279
G3C G31C | 0.0554
G3C G37A | 0.0325
G3C G37C | 0.0266
G3C G37U | 0.0466
G3C G41A | 0.0418
G3C G41U | 0.0159
G3C G47A | 0.264
G3C G47C | 0.136
G3C G47U | 0.0876
G3C G48C | 0.105
G3C G48U | 0.16
G3C G50A | 0.0909
G3C G56U | 0.033
G3C G58A | 0.0258
G3C G58U | 0.216
G3C G65C | 0.0156

Variant | self-cleavage
G3C G65U | 0.0451
G3C G68A | 0.4
G3C G68C | 0.432
G3C U20A | 0.0845
G3C U20G | 0.0823
G3C U21A | 0.072
G3C U21C | 0.058
G3C U21G | 0
G3C U26C | 0.0733
G3C U26G | 0.0558
G3C U36A | 0.0318
G3C U36C | 0.0612
G3C U36G | 0.329
G3C U38A | 0.1
G3C U38G | 0.0344
G3C U43A | 0.0425
G3C U43G | 0.104
G3C U44A | 0.0725
G3C U44G | 0.054
G3C U46A | 0.113
G3C U46C | 0.126
G3C U49C | 0.149
G3C U49G | 0.039
G3C U53C | 0.0464

Variant | self-cleavage
G3C U53G | 0.0664
G3C U55A | 0.0482
G3C U55C | 0.0498
G3C U55G | 0.0373
G3C U61G | 0.0927
G3C U62C | 0.0572
G3C U62G | 0.0946
G3C U64A | 0.0618
G3C U64C | 0.0655
G3C U67A | 0.239
G3C U67G | 0.219
G3C U69C | 0.495
G3C U69G | 0.222
G3U | 0.195
G3U A8C | 0.146
G3U A8G | 0.0722
G3U A8U | 0.121
G3U A10C | 0.332
G3U A10U | 0.424
G3U A13C | 0.0166
G3U A13G | 0.181
G3U A13U | 0.105
G3U A15C | 0.0817
G3U A15G | 0.141

Variant | self-cleavage
G3U A15U | 0.0782
G3U A16C | 0.0591
G3U A16G | 0.0682
G3U A16U | 0.0502
G3U A23G | 0.0915
G3U A40G | 0.0981
G3U A40U | 0.0917
G3U A51C | 0.105
G3U A51U | 0.17
G3U A59C | 0.0549
G3U A59U | 0.0422
G3U A60C | 0.0666
G3U A60G | 0.0646
G3U A60U | 0.0237
G3U C6G | 0.0291
G3U C6U | 0.0423
G3U C7A | 0.0696
G3U C7U | 0.0677
G3U C9G | 0.446
G3U C12A | 0.0925
G3U C22A | 0.051
G3U C22G | 0.0464
G3U C22U | 0.047
